Reference: patent US20220228161A1 (published 2022)
Where two headings read alike, the source gives them in different places.

What was measured:
[1] = biological target: Nicotiana benthamiana subtilisin-like serine protease SBT2, recombinant, C-terminal hexahistidine tag; assay: enzyme inhibition (fluorogenic substrate); pH 5.5, 30°C
[2] = biological target: Nicotiana benthamiana subtilisin-like serine protease SBT1, recombinant, C-terminal hexahistidine tag; assay: as above
gp41 peptide […] = assay: SPR, antibody captured on Protein A chip, peptide as analyte, 1:1 model
[3] = biological target: T1, Nicotiana benthamiana subtilisin-like serine protease SBT1, recombinant, C-terminal hexahistidine tag; assay: enzyme inhibition (fluorogenic substrate); pH 5.5, 30°C
T1 chain: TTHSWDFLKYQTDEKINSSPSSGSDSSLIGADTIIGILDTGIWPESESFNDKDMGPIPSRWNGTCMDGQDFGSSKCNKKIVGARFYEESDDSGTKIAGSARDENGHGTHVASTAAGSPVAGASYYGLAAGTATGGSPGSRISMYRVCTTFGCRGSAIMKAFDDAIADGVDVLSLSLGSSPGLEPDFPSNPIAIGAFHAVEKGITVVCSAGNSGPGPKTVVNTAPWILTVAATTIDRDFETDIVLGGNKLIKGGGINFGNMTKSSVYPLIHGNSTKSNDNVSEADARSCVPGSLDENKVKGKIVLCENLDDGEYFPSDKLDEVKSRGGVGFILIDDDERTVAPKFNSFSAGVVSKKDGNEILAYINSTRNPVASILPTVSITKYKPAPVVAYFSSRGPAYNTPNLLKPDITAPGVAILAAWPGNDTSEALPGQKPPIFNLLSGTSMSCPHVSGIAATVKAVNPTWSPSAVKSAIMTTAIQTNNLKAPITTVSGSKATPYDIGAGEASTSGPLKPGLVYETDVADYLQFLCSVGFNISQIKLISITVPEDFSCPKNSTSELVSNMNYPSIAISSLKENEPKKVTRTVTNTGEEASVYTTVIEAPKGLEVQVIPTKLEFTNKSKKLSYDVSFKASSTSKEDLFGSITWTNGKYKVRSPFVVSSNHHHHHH

[4] = biological target: T2, Nicotiana benthamiana subtilisin-like serine protease SBT2, recombinant, C-terminal hexahistidine tag; assay: as above
T2 chain: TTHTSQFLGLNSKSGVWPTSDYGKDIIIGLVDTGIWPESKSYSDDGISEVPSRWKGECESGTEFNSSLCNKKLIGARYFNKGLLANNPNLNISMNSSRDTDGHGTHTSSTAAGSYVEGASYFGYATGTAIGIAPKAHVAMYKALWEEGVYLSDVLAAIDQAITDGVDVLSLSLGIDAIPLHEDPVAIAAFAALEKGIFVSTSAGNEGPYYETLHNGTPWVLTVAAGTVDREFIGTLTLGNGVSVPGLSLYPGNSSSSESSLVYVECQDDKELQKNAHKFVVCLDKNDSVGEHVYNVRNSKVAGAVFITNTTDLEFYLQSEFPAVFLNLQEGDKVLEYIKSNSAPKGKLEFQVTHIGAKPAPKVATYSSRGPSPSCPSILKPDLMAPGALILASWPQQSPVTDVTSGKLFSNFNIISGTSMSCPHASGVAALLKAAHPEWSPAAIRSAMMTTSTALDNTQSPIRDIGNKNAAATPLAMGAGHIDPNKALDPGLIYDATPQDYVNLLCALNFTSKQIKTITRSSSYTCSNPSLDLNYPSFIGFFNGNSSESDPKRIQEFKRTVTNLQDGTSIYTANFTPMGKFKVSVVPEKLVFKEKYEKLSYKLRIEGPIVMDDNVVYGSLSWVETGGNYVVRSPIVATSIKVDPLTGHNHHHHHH

Molecule “S106g065370 (subtilisin propeptide-like inhibitor from S. lycopersicum)” has a Ki [1] of 27 nM.

For “S111g018590 (subtilisin propeptide-like inhibitor from S. lycopersicum)”, the Ki [2] was 51 nM.

With “cleaved 2F5 (2F5 degradation product after digestion with apoplastic fluid proteases) (antibody)” the fold reduction of affinity against intact 2F5 (gp41 peptide […]) was > 20 fold.

B1: Arabidopsis thaliana subtilisin propeptide-like inhibitor 2 (other)
chain: RTLGPAPDNQQMKCYLVNVDFALYHGDCKQYQQLLKKVVHGRSAKDALVYCYKEVMSGFAAKLTAAEAEKLKGEKGISAIDVDHIFSMDVEPHSHGKGY
In the case of B1, the Ki [3] is reported as 81 nM and the Ki [4] is reported as 45 nM.
